Columns and labels:
Assay in all cases: ELISA
[1] = target: human plasma vitronectin (human)
[2] = target: murine sarcoma laminin (mouse) (UniProt P19137)
[3] = target: human plasma fibronectin (human)

“full-length recombinant P4 (rP4^G22-K274), Haemophilus lipoprotein e (from UniProt P26093 22-274) (natural protein)” gave a Kd [1] of 16.5 nM, a Kd [2] of 9.26 nM and a Kd [3] of 10.2 nM.

Reference: publication PMC6126627
